Where a chain is given by its changes, count along the chain named.
T1: GFP-9S library array, motif 4 ND N98Y;D124E (synthetic construct, N98Y;D124E)
T1 chain: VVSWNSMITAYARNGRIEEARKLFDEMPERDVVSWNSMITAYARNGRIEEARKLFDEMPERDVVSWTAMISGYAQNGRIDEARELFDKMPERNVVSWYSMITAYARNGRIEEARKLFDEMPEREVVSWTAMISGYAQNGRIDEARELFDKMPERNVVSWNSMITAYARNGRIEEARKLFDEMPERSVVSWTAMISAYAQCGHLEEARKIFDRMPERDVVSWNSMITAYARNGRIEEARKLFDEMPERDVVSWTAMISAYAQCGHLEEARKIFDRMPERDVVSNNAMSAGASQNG

T2: GFP-9S library array, motif 4 ND N98D;D124Q (synthetic construct, N98D;D124Q)
T2 chain: T1 chain with Y98D, E124Q

T3: GFP-9S library array, motif 4 ND D124Q (synthetic construct, D124Q)
T3 chain: T1 chain with Y98N, E124Q

T4: GFP-9S library array, motif 4 ND N98G;D124F (synthetic construct, N98G;D124F)
T4 chain: T1 chain with Y98G, E124F

T5: GFP-9S library array, motif 4 ND N98Q;D124Q (synthetic construct, N98Q;D124Q)
T5 chain: T1 chain with Y98Q, E124Q


Columns and labels:
Assay in all cases: high-throughput RNA pulldown from lysate on Ni-NTA beads; HRP: 50 mM Tris pH 8, 150 mM NaCl, 1 mM beta-mercaptoethanol, 50 ug/ml BSA, 3 ug/ml yeast RNA, 0.5% heparin; ITC and FP: Tris pH 8, 200 mM KCl, 5% glycerol; MST: 50 mM Tris pH 8, 200 mM NaCl, 1 mM DTT, BSA, heparin, 0.05% Tween 20
Conditions in all cases: tags: N-terminal His-eGFP
[1] = molecular target: T1, GFP-9S library array, motif 4 ND …
[2] = molecular target: T2, GFP-9S library array, motif 4 ND …
[3] = molecular target: T3, GFP-9S library array, motif 4 ND D124Q
[4] = molecular target: T4, GFP-9S library array, motif 4 ND …
[5] = molecular target: T5, GFP-9S library array, motif 4 ND …

| Binder | Kd ([1]; label: 5' IRDye 800CW) [nM] | Kd ([2]; label: 5' IRDye 800CW) [nM] | Kd ([3]; label: 5' IRDye 800CW) [nM] | Kd ([4]; label: 5' IRDye 800CW) [nM] | Kd ([5]; label: 5' IRDye 800CW) [nM] | Kd ([1]; label: 5' Cy5) [nM] | Kd ([2]; label: 5' Cy5) [nM] | Kd ([3]; label: 5' Cy5) [nM] | Kd ([4]; label: 5' Cy5) [nM] | Kd ([5]; label: 5' Cy5) [nM] |
| --- | --- | --- | --- | --- | --- | --- | --- | --- | --- | --- |
| AUUAUACGUGA (ssRNA) [IR-rpoA-U] | 286 | 803 | 25.9 | 119 | 123 |  |  |  |  |  |
| AUUAAACGUGA (ssRNA) [IR-rpoA-A] | 488 | 973 | 490 | 218 | 167 |  |  |  |  |  |
| AUUACACGUGA (ssRNA) [Cy5-rpoA] |  |  |  |  |  | 128 | 369 | 68 | 69.1 | 118 |
| AUUAGACGUGA (ssRNA) [Cy5-rpoA-G] |  |  |  |  |  | 169 | 270 | 898 | 95.6 | 95.5 |

Source: article PMC8809517, “Cofactor-independent RNA editing by a synthetic S-type PPR protein”
